Experimental data as given in patent publication US20030104423.

Biological target: σ70, native, untagged (pLN12) (UniProt P00579)
Sequence (P00579 whole entry): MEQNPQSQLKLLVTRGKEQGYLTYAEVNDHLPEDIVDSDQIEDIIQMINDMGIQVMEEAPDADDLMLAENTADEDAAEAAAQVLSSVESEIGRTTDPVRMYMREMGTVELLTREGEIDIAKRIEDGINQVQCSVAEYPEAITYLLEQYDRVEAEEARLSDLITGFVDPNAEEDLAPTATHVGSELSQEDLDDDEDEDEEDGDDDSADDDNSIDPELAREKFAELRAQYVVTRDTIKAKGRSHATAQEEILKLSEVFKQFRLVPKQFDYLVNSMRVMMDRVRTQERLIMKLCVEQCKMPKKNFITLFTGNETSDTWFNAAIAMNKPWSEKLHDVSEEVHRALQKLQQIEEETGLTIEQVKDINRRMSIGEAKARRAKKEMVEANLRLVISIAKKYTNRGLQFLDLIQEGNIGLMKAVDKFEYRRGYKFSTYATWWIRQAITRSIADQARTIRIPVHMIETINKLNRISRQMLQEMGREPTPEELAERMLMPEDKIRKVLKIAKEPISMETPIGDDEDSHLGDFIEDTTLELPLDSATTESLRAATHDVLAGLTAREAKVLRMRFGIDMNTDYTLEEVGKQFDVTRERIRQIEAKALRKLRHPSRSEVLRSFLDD

For “β′ 1-1407 wild type with C-terminal His6 (pTA577)”, the “Growth at 42° C. with plasmid β′ as sole source of β′ (strain RL602)” value was “+”.
